T1: p58C272-464 (DNA primase regulatory subunit C-terminal domain) (human, UniProt P49643 272-464)
T1 sequence: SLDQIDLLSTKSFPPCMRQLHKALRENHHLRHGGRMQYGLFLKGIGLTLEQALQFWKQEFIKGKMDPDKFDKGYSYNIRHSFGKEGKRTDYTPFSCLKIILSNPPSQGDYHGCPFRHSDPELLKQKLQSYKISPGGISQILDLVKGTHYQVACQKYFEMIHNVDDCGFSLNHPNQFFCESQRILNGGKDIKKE

T2: p58C266-464 (DNA primase regulatory subunit C-terminal domain) (human, UniProt P49643 266-464)
T2 sequence: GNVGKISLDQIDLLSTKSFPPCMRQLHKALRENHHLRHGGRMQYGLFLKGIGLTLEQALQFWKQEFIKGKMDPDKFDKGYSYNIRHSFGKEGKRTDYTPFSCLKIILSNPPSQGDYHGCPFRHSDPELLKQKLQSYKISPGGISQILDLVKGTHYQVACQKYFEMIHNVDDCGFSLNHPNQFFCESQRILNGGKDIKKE


Legend:
[1] = target: T1, p58C272-464 (DNA primase regulatory …); test: fluorescence anisotropy; 20 mM MES pH 6.5, 50 mM NaCl, 2 mM DTT (plus 0.05% Tween for FI), 50 nM substrate, 25 C; 15 min incubation at room temperature; conditions: protein: recombinant; tags: 6xHis tag cleaved with H3C protease; label: 5'-6FAM on DNA template (S4 Dataset says FITC); 12 bp RNA-DNA hybrid; template 5' overhang 4 nt and 3' overhang 6 nt
[2] = target: T2, p58C266-464 (DNA primase regulatory …); test: as above; conditions: protein: recombinant; tags: 6xHis tag cleaved with H3C protease; label: 5'-6FAM on DNA template (S4 Dataset says FITC); 12 bp RNA-DNA hybrid; template 5' overhang 4 nt and 3' overhang 6 nt
[3] = target: T1, p58C272-464 (DNA primase regulatory …); test: fluorescence intensity (Monolith MST instrument); 20 mM MES pH 6.5, 50 mM NaCl, 2 mM DTT (plus 0.05% Tween for FI), 50 nM substrate, 25 C; 15 min incubation at room temperature; conditions: protein: recombinant; tags: 6xHis tag cleaved with H3C protease; label: 5'-Cy5 on DNA template; 8 bp RNA-DNA hybrid; template 5' overhang 4 nt and 3' overhang 6 nt
[4] = target: T2, p58C266-464 (DNA primase regulatory …); test: as above; conditions: protein: recombinant; tags: 6xHis tag cleaved with H3C protease; label: 5'-Cy5 on DNA template; 8 bp RNA-DNA hybrid; template 5' overhang 4 nt and 3' overhang 6 nt

| Binder | Kd [1] [µM] | Kd [2] [µM] | Kd [3] [µM] | Kd [4] [µM] |
| --- | --- | --- | --- | --- |
| FA substrate: 12 nt RNA-primed 22 nt DNA template (DNA:RNA, 5'-triphosphate on RNA primer (RNA printed with T as S5; written here with U)) RNA: GGACCUCCAGGA DNA: AAACTCCTGGAGGTCCAACATA | 3.6 ± 0.1 | 2.1 ± 0.1 |  |  |
| MST/FI substrate: 8 nt RNA-primed 18 nt DNA template (DNA:RNA, 5'-triphosphate on RNA primer) RNA: GGCUCGGA DNA: AAACTCCGAGCCAACATA |  |  | 2.7 ± 0.3 | 3.4 ± 0.5 |
